Assay: label from the status in PepcDB records
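Also: failed if final PepcDB status was selected cloned or expressed and not failed if soluble or beyond.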

Row | Sequence | protein production
1 | MLNIQNYSASPHPGIVAERPQTPSASEHAEIAVVPSTTEHRGTDIISLSQAATKIQQAQQTLQSTPPISEENNDERTLARQQLTSSLNALAKSGVSLSAEQNENLRSTFSAPTSALFSASPMAQPRTTISDAEIWDMVSQNISAIGDSYLGVYENVVAVYTDFYQAFSDILSKMGGWLSPGKDGNTIKLNVDSLKSEISSLINKYTQINKNTILFPSQTGSGMTTATKAEAEQWIKELNLPDSCLKASGSGYVVLVDTGPLSKMVSDLNGIGSGSALELDNAKYQAWQSGFKAQEENLKTTLQTLTQKYSNANSLYDNLVKVLSSTISSSLETAKSFLQG | failed
2 | MLNMSFAPTSLTVSQMSGTRTIRPLTAATLCGIAFIQDRLIAIDSIKGHLLEIDPKTDNSKILNPHQAKEFTDVTGLAVWEDNLWVTRGNSVYVSKLSSLGLEHFVTLPYSADGVAVWESTVYVSCHRLGYILIFDRDTRKEITRFYAPGVGVENLVVNGNTLWVCDRTEQTVYSMDRATGEVIFSVLTPFESPTGIAVHLDAETGKENLYVAYASEEPYIRDNPNADPNHELTYRDRTFIHPLYYHHQPDKHYALSNGYLIEMSYAEEISPLEEVYIPEVEWRIALPSETERQKIRHIEPIGIPFTEEVIDGQRVALFKFDALVPGERHIFGWKALLEVRGIKYRITPKEVENIPELSPEFQERYLVDDDDLAMDTSIVRRAAEEAVGSETNLLRKMYSIRNYVYDELSYGIKPYIDTPDIVLERGIGSCGEYVGVLLALCRLNGIPCRTVGRYKCPPQAEQQGVPLQPDFNHVWLEFYIPGFGWLPMESNPDDLGRGSQYPTRFFMGLCWYHIEIGKGVSFETISSQGKRLTKDDIPIGDLAINHIRFTIVKELPDF | failed
3 | MLNPVSQLSQAIRENTEHLAEKMKILFQNTGRAWEDLEARINAENEVPILKTSNKEISSILKELRRVQKQLEVINAIVDPSGSLDLLTGNRSLASSAQPGLGKGRVAAQSPPSPASAEALLPALPLRNFPQRASCGPPSLPDPTFLPDAERFLI | failed
4 | MLNVIHALFFRELKTRFGKNRYLGYIWVVGEPMSVVLLVTIIGTVIREYHHQVMPEGISIFMFLISGIMPFFMFRSIVTQLMNGIGANLSLFAYKPVKPIHVFIARTLLEFCIYFVIFITVLFFAGWFFRLDVFPVHLLGVLFCIFLLICSAFALGICFAIVWHFVESLRTLLAYFSIVFYWSSGIIFPTWLTPRPLLDIFYYNPLLHIFELLRFNFFENYPLQDEYSYFYAIFWILLVLFIGLFIYYYNRQALTAAKKE | failed
5 | MLPARLPFRLLSLFLRGSAPTAARHGLREPLLERRCAAASSFQHSSSLGRELPYDPVDTEGFGEGGDMQERFLFPEYILDPEPQPTREKQLQELQQQQEEEERQRQQRREERRQQNLRARSREHPVVGHPDPALPPSGVNCSGCGAELHCQDAGVPGYLPREKFLRTAEADGGLARTVCQRCWLLSHHRRALRLQVSREQYLELVSAALRRPGPSLVLYMVDLLDLPDALLPDLPALVGPKQLIVLGNKVDLLPQDAPGYRQRLRERLWEDCARAGLLLAPGHQGPQRPVKDEPQDGENPNPPNWSRTVVRDVRLISAKTGYGVEELISALQRSWRYRGDVYLVGATNAGKSTLFNTLLESDYCTAKGSEAIDRATISPWPGTTLNLLKFPICNPTPYRMFKRHQRLKKDSTQAEEDLSEQEQNQLNVLKKHGYVVGRVGRTFLYSEEQKDNIPFEFDADSLAFDMENDPVMGTHKSTKQVELTAQDVKDAHWFYDTPGITKENCILNLLTEKEVNIVLPTQSIVPRTFVLKPGMVLFLGAIGRIDFLQGNQSAWFTVVASNILPVHITSLDRADALYQKHAGHTLLQIPMGGKERMAGFPPLVAEDIMLKEGLGASEAVADIKFSSAGWVSVTPNFKDRLHLRGYTPEGTVLTVRPPLLPYIVNIKGQRIKKSVAYKTKKPPSLMYNVRKKKGKINV | failed
6 | MLPGLKYIDRIGVDDVLVWLRKGIVWIVLAIVLCVGGALTYASMTPPRYKAYTDIVVNPSNLNVVNDGVFSPNQQRDTQILEVESKLRTITSRNVLARVVDELKLDQDPEFVSPPPLARLKAMFSSKPDDGDNRVGALRSLGDRVTAERDPRSFVVTLSVWTNDAEKSVAVSKAIVKAFESELFQTNSDSSQRVVDDLKKRLEEMRENVTIAEKRVADFRRENGLQENNGQLVSNLASGELNAQVLATQQRLIQEESRLKQMEAAIAQNRTQSDAIFDSQTMNTIRAQYSTLQQQIGAMTLTYGARHPRLATAGAERAMLERGMADEARRILQAAKINVAEARSSLDALRLKAVAERANVFTDNDAQVRLRDLDRDARSAAAIYETYLTRSRQLAEQQSIDSTNVRVISQPVAPNSRSWPPGKLTFLIAGGMGGLFLGLAIAVALGLWGYLRRDDHAEAAARYA | failed
